Reference: patent US20230392122A1, “LONG-TERM AND FUNCTIONAL CULTURE OF HEPATIC ORGANOIDS (eHEPO) DERIVED FROM EPCAM+ ENDODERMAL PROGENITOR CELLS DIFFERENTIATED FROM INDUCED PLURIPOTENT STEM CELLS” (DOKUZ EYLUL UNIVERSITESI REKTORLUGU, priority 2020, published 2023)
“Also recorded” adds a separate entry of the source.

Tested on: IPSC-derived endoderm cells
Assay: Endoderm differentiation of IPSCs with R-spo1 added, flow cytometry for EpCAM
Assay type: cell-based, human
Conditions: 5 ng/ml R-spo1 added to endoderm medium
Method: To start with, IPSCs were differentiated into definitive endoderms in a medium containing 100 ng/mL Activin A, 50 ng/mL Wnt3a, and 5 ng/mL R-spo1factors for 5 days (FIG. 1A). During the definitive endoderm development stage, the parenchymal cells of the liver derive from a specific germ layer. […] In particular, it is evident that following independent differentiations, the percentage of CXCR4+/EpCAM+ endodermal cells derived from three independent IPSC lines (WT1, WT2 and WT3) is not too different from one another, and that the endodermal induction step of the protocol can be repeated (FIG. 1B). At this point of the assay, the differentiation medium was modified to obtain more EpCAM+ endoderm cells. Wnt signalling pathway agonist and 5 ng/ml R-spo1, which is known to play a significant role in stem cell growth, were added to the endoderm medium. […] As a result, this protocol enables IPSCs to differentiate into more EpCAM+endoderm cells in two-dimensional mediums.

B1: R-spo1: Wnt signalling pathway agonist known to play a significant role in stem cell growth, added to the endoderm medium (protein, UniProt Q2MKA7 21-263, looked up)
R-spondin-1: SRGIKGKRQRRISAEGSQACAKGCELCSEVNGCLKCSPKLFILLERNDIRQVGVCLPSCPPGYFDARNPDMNKCIKCKIEHCEACFSHNFCTKCKEGLYLHKGRCYPACPEGSSAANGTMECSSPAQCEMSEWSPWGPCSKKQQLCGFRRGSEERTRRVLHAPVGDHAACSDTKETRRCTVRRVPCPEGQKRRKGGQGRRENANRNLARKESKEAGAGSRRRKGQQQQQQQGTVGPLTSAGPA
- morphology of the cells (DIC images): not affected negatively
- EpCAM ratio / number of EpCAM (+) cells (flow cytometry, three healthy IPSCs): causes an increase in the number of EpCAM (+) cells; also recorded: increases the EpCAM ratio considerably
